In doi:10.1101/2022.12.27.521990:

Biological target: Soluble, trimeric spike of SARS-CoV-2/human/China/Wuhan-Hu-1/2019 (residues 1-1204, 6 proline mutations) (SARS-CoV-2) (UniProt P0DTC2)
Assay: SEC

Substance “Soluble, trimeric spike of SARS-CoV-2/human/China/Wuhan-Hu-1/2019 (residues 1-1204, 6 proline mutations) (from UniProt P0DTC2 14-1204) (domain or fragment)” has a stoichiometry N of 3.
